# Test results as given in the DeepSol protein solubility set.
# Assay: soluble on expression in E. coli; label from the status in PepcDB or PDB records
row,Sequence,soluble on expression in E. coli
1,MGSDKIHHHHHHMINPIILPLDKVRNPRDLGSYVGYNGRKIKMHRLLRTGKISNITEHDKKFLLDYGLTKIIDLRSPFECKKAPDSQIPGVEHIDLSISTEDNTKGGKKDITKVFETYRKDQYAGFNMMCDRYRSHVMKEHAQHALHSILEVLANTKDGAIIYHCSEGKDRTGIVTVLILYLLGVDMETIRQDYLYSNYMLDNYRASRDKIMQENGENLCFRANMRILGSVSDAFLDTSLIAIHKNFGSLDNYLKEIIGVTPELRDTLRELYLED,not soluble
2,MGSDKIHHHHHHMSIRGKAFIVGAYEHPGRNLPDHSVQQIHAECAMGALSDAGLSIKDVDGYFSNGQLGFGGISMAEYLGLRLSYIDSTFTGGSSYMAHVGHAAAAIAAGKCKVALITQGAKVRGVIRGAKHTADTPEFPFETVYGETNAAIYALAARRHMHEYGTTAEQLAAVKVAAAAYAQHNPNALLRKLVSIDDVMNSPIIADPLHRLDCCVVTDGGGALVLVAPEIARSLKRQSVKLLGHAEAIRHGGDGPSDFASTAAALSGPRAFTEAGVSPRDVRYASIYDSFTITVIMTLEDLGFCGKGEGGAFVASGALGLDGLLPINTDGGGLCNNHPGYQGGMVRTIEAVRQLRGEANPNTQVKNCTIALAHGTGGGMSRHASVTLVLGQEDA,not soluble
3,PLYLGLMSGTSIDGIDAALVRINANPITHCELIAAQTSAWDPNLRTTLLELSQGQNTASLDQLGWLDAQVGLAFATAANTLIAKTGIKHTQIRAIGSHGQTIRHRPHGDLPFTWQLGDAHRIAELTGITTVADFRRRDVAAGGQGAPLMPAFHLAILGSANENRAVLNLGGIANLTLIPMTGPVLGFDTGPANALLDSWYQRHHHETFDQSGNFAASGKINQKLLACLLDDPWFTLPPPKSTGREQFHLDWMTKQLEPTPPSPADVQATLLELTAVTVADALLRQQPKTTRLLICGGGAHNPVLMARLATHLPNVTVESIQTYGLNPDYLEAMGFAWLAAQTLDGQPSNLPSVTGARGLRLLGAIHPA,not soluble
4,MATPFDGSNDATESRLLQLGRERLDPILAQQSDALQTQLSNQGIKLGSAAYDRAMTQQALHANDATDQLILQGHGQAFAEGQAIRNQPINEITALLSGSQVSNPQAAAYTPSTIPTTDNAGIIANNYQQKMDAYNAQMSQASSLAGGLFGLGGKLISLSDDDAKKDKERLADITPEMGLWKFHYKGEPADAPMRLGLMASEVEKVRPDAVSRRPDGYRQVDYGKALSLGALEHHHHHH,not soluble
5,GPGSMDYPKKNQAAPAEGQTVRLTITSRNAKAVESVTSQLLTRARDEKVTIHGPVRLPTRTLKITTRKTPCGNGTNTWDTFELKIYKRIIDLHAPTEQVKKITSFTMESGVDVSITILDR,soluble
6,MGSDKIHHHHHHMYTMFYTSKTALSANQSKLDIISNNIANSDSTGYKKINMEYSDLVDEVLNRPSYPTNGNDISTGTGAKATAPMRNYEQGALAPTDSKSNLAIDGEGFFRVIRKDGTYAYTRNGGFNVDALGKIVDDNGNILDVQFDAGYNYNNTNIDSTNLTVSRNGELFVDNKKIGKINLYQPIGTQNFISEGDSLFVATDAAQIKQVEKVDIVQGYRERSNVSLQEEFVDLIATQRAFQMNSKGIKTADEMWQIANNLRAK,not soluble
7,MGSDKIHHHHHHMKISLAPISYCWSKSDVEHFYQQVALSNIDTVYLGETVCSRRRELKFNNYLDLANMLKSHGKHVVLSTMALIEAQSELNELKRAIDNGDFSIEANDMAAVHYAHQAKVPFVCGPTINNYNRTSLNLLHQKGMYRFVMPCELSQQWLNTVINQGDKPAFEIEVLGHGYLPLAHSARCFTAKHYQLPKDKCQTICQRHSKGLLAQTQESQPLLRLNGIQTQSAAQVNLINQIPQMIDMGIDYWRISPNKLTDVAMGSELAHVLAQITEDPFNSKALITKQFNDNKQASIINHHCNGYWLGLPGMDYSLEPNTPAG,not soluble
8,MKQKIWYTYDDIHRVIKALAEKIRNADIKYDAMIAIGGGGFIPARMLRCFLEIPIYAVTTAYYDSDNEGQVTEEVKKVQWLDPVPEALRGKNVLVVDEVDDSRVTMEFCLKELLKEDFGTIGVAVLHEKIKAKAGKIPEGIPYFSGITVEDWWINYPWDALDIDEHNRLAEAGRG,not soluble
9,ENLMQVYQQARLSNPELRKSAADRDAAFEKINEARSPLLPQLGLGADYTYSNGYRDANGINSNATSASLQLTQSIFDMSKWRALTLQEKAAGIQDVTYQTDQQTLILNTATAYFNVLNAIDVLSYTQAQKEAIYRQLDQTTQRFNVGLVAITDVQNARAQYDTVLANELTARNNLDNAVEQLRQITGNYYPELAALNVENFKTDKPQPVNALLKEAEKRNLSLLQARLSQDLAREQIRQAQDGHLPTLDLTASTGISDTSYSGSKTRGAAGTQYDDSNMGQNKVGLSFSLPIYQGGMVNSQVKQAQYNFVGASEQLESAHRSVVQTVRSSFNNINASISSINAYKQAVVSAQSSLDAMEAGYSVGTRTIVDVLDATTTLYNAKQELANARYNYLINQLNIKSALGTLNEQDLLALNNALSKPVSTNPENVAPQTPEQNAIADGYAPDSPAPVVQQTSARTTTSNGHNPFRN,soluble
10,CIIDKVTAVRRLNVLTLNVHKGFTFFNRRFILPELREAVRATGADLVFLQEVHGSHQQHALRHPAWPETPQYEFLADSMWPQFAYGRNAVYPHGDHGNALLSKFPIRRFNNLDVSVQGNEQRGLLHCQLEVPGHDEVHAVCVHLGLREAHRQRQVKLMLDLLASLPPNAPVIIAGDFNDWRLKADAVLSEHLTEAFGTPARSFPARLPLLRLDRIYLRNAVPGAAQVLSKYPWSHLSDHVPLAAEINL,not soluble
11,MNIEEAKKLIDKQSIGKGGVGDIPVVKTHIVKVLLDQIDQPQPEVPRFVADWYEKHKDSLECDLYLYHMSIYDEEVEKDDFYYWMQTSKNPVYTLINMHQFGYTIQKEKLYTVEIPNPNERQLSFVLMRQLSGNVSIKVMHRDNLDLLKTDNDLQLTESEIRKDFDWAWQFREEVVE,not soluble
12,RADPDPMKNTCKLLVVADHRFYRYMGRGEESTTTNYLIELIDRVDDIYRNTAWDNAGFKGYGIQIEQIRILKSPQEVKPGEKHYNMAKSYPNEEKDAWDVKMLLEQFSFDIAEEASKVCLAHLFTYQDFDMGTLGLAYVGSPRANSHGGVCPKAYYSPVGKKNIYLNSGLTSTKNYGKTILTKEADLVTTHELGHNFGAEHDPDGLAECAPNEDQGGKYVMYPIAVSGDHENNKMFSQCSKQSIYKTIESKAQECFQERSNKVGSHHHHHH,soluble
13,MGSSHHHHHHSSGLVPRGSHMASKRCRQCSGDSASSSTSSLSPSELPPSKKAAGGQRVTAEVEVAPITTDATSATVTAAGGAKKKATTGSPARRTSSAAKITNGDAGELIRTAEALAALNAKKSEKEIWSDVVPFVRRTTDSDFDPSRMYKFITWNVAGLRGLLKKNASALRAFMEAEKPDVLCLQETKLNVDEADANATLGVVDGYSFVDHPCAFKRGYSGTRTYMKNSTTVKGLHARCTRGFALPSEPQADAAAGSRVLVEGAGDEEGRVLTTFLSPDPDSASSSSRIALVNTYVANSGMGLTRLPYRVQSFDPSMREYLHRLDTWATENAAVPSAAAMGSGSSPHGFIWAGDLNVAERDYDRYYAGTFKSMQECSGFAPEERMSFRETMQRTNSVDIFRQLYPQAGPVYSFWSQRINGRPRNLGWRLDYFVVSSRLASYVVDCFPMPTVMGSDHCPFQMWMRHP,soluble
14,MQCGLLKHRLLKFFSTEAIMTTNQRSIKAPQTVVVKLGTSVLTGGTLALDRAHMVELARQCAELKKQGHSVVIVTSGAIAAGREHLGYPALPNAISSKQLLAAVGQSRLIQVWESLFAIYGIKIGQMLLTRADLDDRERFLNARDTINALVENGIVPVVNENDAVATNEIKVGDNDNLSALVGILCGADKLLLLTDQKGLFTADPRKDPNAQLIKEVTTIDDTLRKIAGGSGTTLGTGGMATKLQAADIARRAGIEVIIAAGRAPNVIFDSLSDEPQGTRFLALEEALENRKRWILAGPAASGDIVIDDGAVKAVQTKGSSLLAKGVVRVQGQFARGEVVRVLDKQSHLIARGIAAYSNDELAQIAGKHSKEIIDILGYDHGSEVIHRDDMVVIQE,not soluble
15,MNNQFIQRVIFDWNRIDNDSYLKGIEAFKGIEKLDFNKPITFFVGENGSGKSTLLEALAVAHGFNPEGGTKNYVFSTHDTHSELCDAIRIAKGYRKEKWGYFLRAESFYNVATQEEEYADITHPSAKYHEKSHGESFLALAQNNMNPNGLYLFDEPEAALSPQRQLTLLMQIYRCAKEGAQFIIVTHSPILLGIPDADIYCFDNGCIHLCEYEDTESYQVTEMFINNRQMLLDRLLTD,not soluble
16,MPKSLSLQDVQLRFSSKFPDKTVLKFTKNYEPVTIQCPLHGSVVYGNLQAAMKSSTGCPECTRNPEKPSPNAVAIRLEDTETGEIYEFASTLAASKFIGCSNSTLAVRLSGRTPFDRLIRYRYRLVK,not soluble
17,MGHHHHHHSHMDDAAVLKRRGYLLGINLGEGSYAKVKSAYSERLKFNVAIKIIDRKKAPADFLEKFLPREIEILAMLNHCSIIKTYEIFETSHGKVYIVMELAVQGDLLELIKTRGALHEDEARKKFHQLSLAIKYCHDLDVVHRDLKCDNLLLDKDFNIKLSDFSFSKRCLRDDSGRMALSKTFCGSPAYAAPEVLQGIPYQPKVYDIWSLGVILYIMVCGSMPYDDSNIKKMLRIQKEHRVNFPRSKHLTGECKDLIYHMLQPDVNRRLHIDEILSHCWMQPKARGSPSVA,not soluble
18,TVSVLLPFVATEFYRRLVEGIEGVLLEQRYDLALFPILSLARLKRYLENTTLAYLTDGLILASYDLTERFEEGRLPTERPVVLVDAQNPRYDSVYLDNRLGGRLAGAYLARFPGPIFAIAVEEEPDRAFRRTVFAERMAGFQEALKEAGRPFSPDRLYITRHSQEGGRLALRHFLEKASPPLNVFAGADQVALGVLEEAVRLGLTPGRDVRVLGFDGHPFAEEAGLSTIAQPVEAMGARAAQLLLERMRGYQGPPREVRFEPVLVERASTGTPPAA,soluble
19,MEKIVYEQLKETLYYEKLPNGLDVYILPKQGFNKTFATSTTKYGSVDNTFVPLGKEEMIRVPDGIAHFLEHKLFEKEDHDAFQLFSKQGASANAFTSFTRTAYLFSCTSNVEQNLNTLLNFVQEPYFSEKTVEKEKGIIGQEIQMYQDNPDWRLYFGLIDSLFVKHPIKIDIAGTIESISKITKDLLYECYETFYHPSNMLMFVVGAIDPEKTMDLVHENQAKKDYKNQPEIVRSFEEEPDEVNEKKKIISMPVQTPKCLVGIKATNLKEKGEALLKQEIALTLLLDYLFGKSSVHYESLYNEGLIDDTFSYDYTEENNFGFAMVGGDTKQPDELEERLKSILLNTNYNQLDEAALERVKKKKIGGFLRSLNSPEYIANQFTRYAFNESSLFDALTVLESLTVQDLQEVAQLLLSEEKMSVCQVLPKK,not soluble
20,MNILVTGAKGFVGRNLCAQLNNIKNGKARCYGDLKIEEVFEYDIDSTSEQLDAWCQKADFVFNLAGVNRPKENVEFMKGNFGFASTLLDTLKKHHNTCPVMLSSSAQASLTGRFGNSEYGRSKKAGEDLFLQYGKDTGAKVLVYRFPNLYGKWCRPNYNSAVATFCNNIANDLPIQVSDSSVVLELLYIDDLVDEMIHALKGEEHHCEFEGLDVHPLVDGRYCYCPVTHKVTLGEIVDLLHQFAEMPKTLMIPEIPSDSFAKRLYSTYLSYLPKEKAIFDLKMNVDQRGSFTELVHTLNCGQVSINISKPGITKGEHWHNTKWEQFIVVSGHGLIQLRKEGTDEVLNYEVSGDKIQSVIMLPGYAHNIINLSDTEDLVTVMYCNEIFNPDKPDTYFDKVKK,not soluble
